Measured values taken from patent US9328139B2, “Cyclin based inhibitors of CDK2 and CDK4” (University of South Carolina, priority 2010, dated 2016).
Like-named read-outs stand apart in the source and are kept apart here.

Key:
[1] = system: retinoblastoma (Rb)-positive tumor cells; settings: cited from earlier work
CDK4/Cyclin D1 = biological target: T1, CDK4/Cyclin D1 (Homo sapiens, UniProt P24385); assay: CDK4/Cyclin D1 in vitro kinase assay (32P filter capture, GST-Rb substrate); format: biochemical
T1 construct: performed using full-length recombinant CDK2/cyclin A2 and CDK4/Cyclin D1; GST (N); purchased SignalChem, Richmond, Canada; host or cells: Sf9 insect cells (baculovirus)
T1 sequence (P24385 whole entry): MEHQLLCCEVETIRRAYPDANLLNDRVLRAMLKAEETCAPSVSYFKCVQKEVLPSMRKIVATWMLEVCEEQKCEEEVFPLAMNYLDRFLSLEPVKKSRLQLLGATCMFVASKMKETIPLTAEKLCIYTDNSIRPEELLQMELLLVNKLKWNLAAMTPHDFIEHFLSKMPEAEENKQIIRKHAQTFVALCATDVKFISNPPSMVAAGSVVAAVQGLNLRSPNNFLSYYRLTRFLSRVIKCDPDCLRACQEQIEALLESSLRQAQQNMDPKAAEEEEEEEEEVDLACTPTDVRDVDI
T1 sequence (P11802 whole entry partner): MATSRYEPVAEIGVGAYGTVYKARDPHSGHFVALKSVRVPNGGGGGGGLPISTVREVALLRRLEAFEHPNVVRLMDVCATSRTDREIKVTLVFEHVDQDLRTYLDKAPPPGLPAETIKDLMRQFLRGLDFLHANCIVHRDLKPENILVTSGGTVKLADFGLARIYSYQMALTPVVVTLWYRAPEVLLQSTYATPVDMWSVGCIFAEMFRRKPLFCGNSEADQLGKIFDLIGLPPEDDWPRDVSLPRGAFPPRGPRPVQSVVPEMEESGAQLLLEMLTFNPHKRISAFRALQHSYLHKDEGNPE
Procedure: CDK2/Cyclin A2 and CDK4/Cyclin D1 kinase assays were performed using full-length recombinant CDK2/cyclin A2 and CDK4/Cyclin D1 co-expressed by baculovirus in Sf9 insect cells using an N-terminal GST tag on both proteins. […] The [^32P]-ATP Assay cocktail was prepared in a designated radioactive working area by adding 150 ul of 10 mM ATP stock solution, 100 ul[^32P]-ATP (1 mCi/100 ul), 5.75 ml of kinase assay buffer I. 10 mM ATP Stock Solution was prepared by dissolving 55 mg of ATP in 10 ml of kinase assay buffer I. Store 200 μl aliquots at −20° C. […] The reaction was initiated by the addition of 5 μl [^32P]-ATP assay cocktail bringing the final volume up to 25 μl and incubating the mixture in a water bath at 30° C. for 15 minutes. After the incubation period, the reaction was terminated by spotting 20 μl of the reaction mixture onto individual pre-cut strips of phophocellulose P81 paper. The pre-cut P81 strip was air-dried and sequentially washed in a 1% phosphoric acid solution with constant gentle stirring. Radioactivity on the P81 paper was counted in the presence of scintillation fluid on a scintillation counter. […]
Activities of peptides previously tested against CDK2A and CDK4D were determined using this assay format.

activity in the CDK4/cyclin D1 kinase assay (in words) (CDK4/Cyclin D1)	activity in the CDK4/cyclin D1 kinase assay (in words) (CDK4/Cyclin D1; listed as p21 X8 derivative)	Compound	cell cycle effect [1]
–	–	CC(=O)c1c(C)c2cnc(Nc3ccc(N4CCNCC4)cn3)nc2n(C2CCCC2)c1=O [PD0332991]	G1 arrest
no observable activity	loses all activity	HAKRRLIX8: HAKRRLIX with X8 = 4-pyridylalanine, SEQ ID NO: 24	–
